This is an account of results in publication PMC8892091 (The Journal of Biological Chemistry, 2022).

One data set deals with His-tag labeled ALKBH6 (human, UniProt Q3KRA9 1-238, fluorescent label on the His-tag (His-tag labeling kit RED-tris-NTA)). Description: MST.
The data set “crystal structure” concerns the molecule itself. Description: crystal structure.

B1: ZMYND11 peptide (V71 to K151) (domain or fragment, human, UniProt Q15326 71-151, looked up)
chain: VGCKGSKAGIEQEGYWLPGDEIDWETENHDWYCFECHLPGEVLICDLCFRVYHSKCLSDEFRLRDSSSPWQCPVCRSIKKK
B1: the “fold higher binding affinity than ALKBH6 itself” value in the data set with His-tag labeled ALKBH6 is 3.5 fold.

B2: ALKBH6 (crystallised, ALKBH6∙Mn2+∙α-KG; holo-ALKBH6) (enzyme, human, UniProt Q3KRA9 1-238, looked up)
chain: MEEQDARVPALEPFRVEQAPPVIYYVPDFISKEEEEYLLRQVFNAPKPKWTQLSGRKLQNWGGLPHPRGMVPERLPPWLQRYVDKVSNLSLFGGLPANHVLVNQYLPGEGIMPHEDGPLYYPTVSTISLGSHTVLDFYEPRRPEDDDPTEQPRPPPRPTTSLLLEPRSLLVLRGPAYTRLLHGIAAARVDALDAASSPPNAAACPSARPGACLVRGTRVSLTIRRVPRVLRAGLLLGK
Take B2: the binding result in “crystal structure” is on record as “binds”.
